Measurements reported in publication PMC3696691, “Zinc-induced Self-association of Complement C3b and Factor H” (The Journal of Biological Chemistry, 2013).

Molecular target: T1, C3b (human, UniProt P01024 23-667; P01024 749-1663, free SH group of the C3b thioester blocked with 20 mM iodoacetamide)
T1 construct: Complement C3 beta chain, human; Complement C3b alpha' chain, human: the alpha chain without the ANA/C3a domain; here cut by trypsin; 12 domains; calculated mass 179.3 kDa; also called active C3b; source: made from C3 purified from human plasma by trypsin (1% w/w, 120 s, 37 °C), iodoacetamide added, purified on Superose 6
Assay: AUC; sedimentation velocity, 50,000 rpm, 20 °C; 1:1 mixture of 5.5 uM C3b and 5.5 uM FH incubated at 4 °C overnight; no zinc
Conditions: both partners purified

B1: complement Factor H (FH), wild-type (natural protein, human, UniProt P08603 19-1231, looked up)
chain: EDCNELPPRRNTEILTGSWSDQTYPEGTQAIYKCRPGYRSLGNVIMVCRKGEWVALNPLRKCQKRPCGHPGDTPFGTFTLTGGNVFEYGVKAVYTCNEGYQLLGEINYRECDTDGWTNDIPICEVVKCLPVTAPENGKIVSSAMEPDREYHFGQAVRFVCNSGYKIEGDEEMHCSDDGFWSKEKPKCVEISCKSPDVINGSPISQKIIYKENERFQYKCNMGYEYSERGDAVCTESGWRPLPSCEEKSCDNPYIPNGDYSPLRIKHRTGDEITYQCRNGFYPATRGNTAKCTSTGWIPAPRCTLKPCDYPDIKHGGLYHENMRRPYFPVAVGKYYSYYCDEHFETPSGSYWDHIHCTQDGWSPAVPCLRKCYFPYLENGYNQNYGRKFVQGKSIDVACHPGYALPKAQTTVTCMENGWSPTPRCIRVKTCSKSSIDIENGFISESQYTYALKEKAKYQCKLGYVTADGETSGSITCGKDGWSAQPTCIKSCDIPVFMNARTKNDFTWFKLNDTLDYECHDGYESNTGSTTGSIVCGYNGWSDLPICYERECELPKIDVHLVPDRKKDQYKVGEVLKFSCKPGFTIVGPNSVQCYHFGLSPDLPICKEQVQSCGPPPELLNGNVKEKTKEEYGHSEVVEYYCNPRFLMKGPNKIQCVDGEWTTLPVCIVEESTCGDIPELEHGWAQLSSPPYYYGDSVEFNCSESFTMIGHRSITCIHGVWTQLPQCVAIDKLKKCKSSNLIILEEHLKNKKEFDHNSNIRYRCRGKEGWIHTVCINGRWDPEVNCSMAQIQLCPPPPQIPNSHNMTTTLNYRDGEKVSVLCQENYLIQEGEEITCKDGRWQSIPLCVEKIPCSQPPQIEHGTINSSRSSQESYAHGTKLSYTCEGGFRISEENETTCYMGKWSSPPQCEGLPCKSPPEISHGVVAHMSDSYQYGEEVTYKCFEGFGIDGPAIAKCLGEKWSHPPSCIKTDCLSLPSFENAIPMGEKKDVYKAGEQVTYTCATYYKMDGASNVTCINSRWTGRPTCRDTSCVNPPTVQNAYIVSRQMSKYPSGERVRYQCRSPYEMFGDEEVMCLNGNWTEPPQCKDSTGKCGPPPPIDNGDITSFPLSVYAPASSVEYQCQNLYQLEGNKRITCRNGQWSEPPKCLHPCVISREIMENYNIALRWTAKQKLYSRTGESVEFVCKRGYRLSSRSHTLRTTCWDGKLEYPTCAKR
notes: Complement factor H, human, 20 SCR domains (SCR-1/20); Calculated mass 154.4 kDa; source: gel filtration
With B1 the “stoichiometry N” value was 1.
